Biological target: T1, GST-BRCA1-N (N-terminal of BRCA1, 1-147 aa) (human, UniProt P38398 1-147)
T1 construct: BRCA1, human, N-terminal residues 1-147; Cloned into pGEX-4T-1, which as far as I know puts GST at the N-terminus; also called recombinant BRCA1-N
Assay: MST; RED-NHS-labelled GST-BARD1-N or GST-BARD1^P24S-N at constant concentration (10-50 nM), twofold serial dilutions of GST-BRCA1-N; 50 mM Tris-HCl pH 7.4, 150 mM NaCl, 10 mM MgCl2, 0.05% Tween 20; 15 min at room temperature; Monolith NT.115, 20% and 40% MST power
Settings: both partners purified

T1 sequence (P38398 1-147): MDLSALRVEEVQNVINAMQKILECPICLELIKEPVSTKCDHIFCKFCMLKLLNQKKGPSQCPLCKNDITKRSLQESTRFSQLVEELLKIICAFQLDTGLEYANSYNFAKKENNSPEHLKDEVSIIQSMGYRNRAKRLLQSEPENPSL

B1: GST-BARD1-N (N-terminal of BARD1, 1-142 aa) (domain or fragment, human, UniProt Q99728 1-142, looked up)
chain: MPDNRQPRNRQPRIRSGNEPRSAPAMEPDGRGAWAHSRAALDRLEKLLRCSRCTNILREPVCLGGCEHIFCSNCVSDCIGTGCPVCYTPAWIQDLKINRQLDSMIQLCSKLRNLLHDNELSDLKEDKPRKSLFNDAGNKKNS
modifications: fluorescent label from the RED-NHS protein labeling kit (NanoTemper)
notes: BRCA1-associated RING-domain protein 1 (BARD1), human, N-terminal residues 1-142; Cloned into pGEX-4T-1, which as far as I know puts GST at the N-terminus
A Kd of 890 nM was found for B1 in this work.
